{
  "source": "the domain aggregation screens of Martell et al. (2025)",
  "test": "soluble fraction after stress (log2 fold change); higher = more stays soluble; pooled small domains, quantitative proteomics",
  "conditions": "stress: pH 4",
  "summary_of_the_method": "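Small protein domains from pooled custom libraries were exposed to pH 4, then quantified with high-throughput quantitative proteomics. The fold change in how much of each domain remains soluble is read as aggregation propensity. It is given as log2, with higher values meaning more stayed soluble.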",
  "data": [
    {"sequence": "HMIILYTDEQQRIIDRLNEFIGEQPSQNEAAKLLGISAPILTNLRKGTYTGTVDKFMNKLAAYFNIKADLG", "values": [
      {"measurement": "soluble fraction (log2)", "result": -0.372}
    ]},
    {"sequence": "HMYSDDNKSILNLIDNLFNKENIKIDINAKKLLSNYLGVDRLVTKGEIEKAILFAGTKKHLSIEDISAFLS", "values": [
      {"measurement": "soluble fraction (log2)", "result": -0.992}
    ]},
    {"sequence": "HMSMFSEILRTLRKAKGLTQRELAGHLGVTQQMVAKWEKGQSTPGPDQLTRMAELLEVSTDTLLGR", "values": [
      {"measurement": "soluble fraction (log2)", "result": -0.104}
    ]},
    {"sequence": "HMKRLQEQAYDYLKELILSGKMIENEIYSETKLASEIGISRTPIRDALQRLSQDGFIDIIPSKGFRIH", "values": [
      {"measurement": "soluble fraction (log2)", "result": -0.889}
    ]},
    {"sequence": "HMREVVLNRIGSVAVQRATTRTWEEWVVTLDAEGMRGKEHRDVVGHLLRAHELTSWWAQMVSVGYEQSRGQ", "values": [
      {"measurement": "soluble fraction (log2)", "result": -0.155}
    ]},
    {"sequence": "HMQKAQEYILVDIKGEVQTPGVYKLPVNSRVIDAIEASGGLTKKAVTTYINLSKTLKDENVIIINKKSEL", "values": [
      {"measurement": "soluble fraction (log2)", "result": -0.0717}
    ]},
    {"sequence": "HMSDLFKYSPYKTLTEEQYKITYQIIERLKTDLSNGIPRISIIDGGAGTGKSILGIFLLKLLVDAQN", "values": [
      {"measurement": "soluble fraction (log2)", "result": 0.321}
    ]},
    {"sequence": "HMFDLKKIYGTILDETKSSLLLSTDDGREVQIIKTDGTEVLASGLGVYVEVAYRDETPDGYPIALTI", "values": [
      {"measurement": "soluble fraction (log2)", "result": -0.298}
    ]},
    {"sequence": "HMAAHHIILEEREQLSVSGVEEVESFDENTIVMLTNRGTLIVRGEELHIEKLSLDGGDLRVEGSIDSLTYE", "values": [
      {"measurement": "soluble fraction (log2)", "result": -1.09}
    ]},
    {"sequence": "HMANPEFAGYINGKPYFGPTHQHRGVKMLGATHTRNPHPLVWDSIAESLANYDSRFRWSGGQIL", "values": [
      {"measurement": "soluble fraction (log2)", "result": -0.203}
    ]},
    {"sequence": "HMEAPMPIFWRPQFRIGHDDIDADHRYLILLINTVELVLRFPDDPRNVELALTELRRYAEDHFEREER", "values": [
      {"measurement": "soluble fraction (log2)", "result": 0.0123}
    ]},
    {"sequence": "HMFGNTGETSGTGVAFTRSPVDGENKIFGEFLVNAQGEDVVAGIRTPQPISEMEQAFPEVYSKFESVAEIL", "values": [
      {"measurement": "soluble fraction (log2)", "result": -0.305}
    ]},
    {"sequence": "HMLRDTTLLHIDSIVRDGSTAMANITVRDEGTDLEFPLQLRMERGDMGWQVVRIVNYRAYLEAVQKA", "values": [
      {"measurement": "soluble fraction (log2)", "result": -0.59}
    ]},
    {"sequence": "HMQLTPAQHAILAHALEHSDGKIVWFPDNIKGGARKKVLDGLLNRALITTDGTDWFVAAEGYDAMGR", "values": [
      {"measurement": "soluble fraction (log2)", "result": 0.063}
    ]},
    {"sequence": "HMRNERDRQLYAAMEKLKAEYREALYLVYFENMSYRDAAAVMAQTEKQISNLVYRGKQSLKTILEQEGF", "values": [
      {"measurement": "soluble fraction (log2)", "result": -0.867}
    ]},
    {"sequence": "HMEDPFLWVEKLGSSDWIEREESAEKLLEAGEASVEALRTALTHPDLEVRERVRELLSVISPL", "values": [
      {"measurement": "soluble fraction (log2)", "result": -1.82}
    ]},
    {"sequence": "HMDAYSYFIRTYPLVDDPLIGDIRRIFAETHDGNPAGDADVRHILWRLLFERELYPTLDEATADWY", "values": [
      {"measurement": "soluble fraction (log2)", "result": -1.86}
    ]},
    {"sequence": "HMNYKNAIGQVGSVYVPIPPNREGLGQIEVKVQSRVSTVRAVSDHSERLENRVAVRVIELVDDRTLLVEKL", "values": [
      {"measurement": "soluble fraction (log2)", "result": -1.13}
    ]},
    {"sequence": "HMKESFAQLFSLLTPTEQKVAALISQGFSNKDIAAKMFISLSTVKTHTNHIFAKMGVANRNALVAKVNN", "values": [
      {"measurement": "soluble fraction (log2)", "result": -0.0677}
    ]},
    {"sequence": "HMGGGVSSSLAGNVFKVLLPAGSVVEQGQAVIVLEAMKMETEVNAPKSGSVSSVFVNEGDTVEVGDLLFAI", "values": [
      {"measurement": "soluble fraction (log2)", "result": -0.162}
    ]},
    {"sequence": "HMKHRTQMDIQQLPAIEGKGGFEYKISIIHLSTRIKYSEIHDNYNTTTIAKVYENAIERLPPF", "values": [
      {"measurement": "soluble fraction (log2)", "result": -1.13}
    ]},
    {"sequence": "HMPGEIKKIPINSISYQDLKQHPYFDAYLAKQVIKYRETKGRIENIEQFREATRAYQSLIEKVTPYLDFE", "values": [
      {"measurement": "soluble fraction (log2)", "result": -0.268}
    ]},
    {"sequence": "HMTVKVPDLRGKTLAEMQRILDDAGLKYEINDSTFSRTAIPGTVREVIPAPGSEVKLGRILFIAINGF", "values": [
      {"measurement": "soluble fraction (log2)", "result": 0.00881}
    ]},
    {"sequence": "HMPSSAYGPYKNVFLSNSELTKLKNELPTSWEHYINRLSEYMRSTGRQYQSHAATILRWAATDRNS", "values": [
      {"measurement": "soluble fraction (log2)", "result": 0.0263}
    ]},
    {"sequence": "HMTPVFGEEETVLQAAVRGIISDTDQWTMEAEAKSMLNQLGFSDYEEKMAHMSGGQKKRVALVNALLTP", "values": [
      {"measurement": "soluble fraction (log2)", "result": -0.555}
    ]},
    {"sequence": "HMDIPGITAVKPQAAFYMFPKIDVKKFNIVNDEKFALDLLQDKKILIVQGSGFNWKQPDHFRVV", "values": [
      {"measurement": "soluble fraction (log2)", "result": 0.115}
    ]},
    {"sequence": "HMTKAGVDAWTRGDYAAAVKEWQAQAAKGDADAIFNLGQAFKLGKGVPQDLIKAEQLFGQAAA", "values": [
      {"measurement": "soluble fraction (log2)", "result": -0.466}
    ]},
    {"sequence": "HMNENDPRVIKTRRLLLDSFVVLVRKKDFTSISVKDITDSAQVNRATFYAHFQDKYDILEYMVID", "values": [
      {"measurement": "soluble fraction (log2)", "result": -0.198}
    ]},
    {"sequence": "HMKQAINFSDLNSLEEGLGIAIRQKWNEVSINDVPEDKIELVEDWINNNRGKYKGINISIGSTY", "values": [
      {"measurement": "soluble fraction (log2)", "result": 0.0722}
    ]},
    {"sequence": "HMNDTVGMNIRRLRKERGMTQGDLADKAGIQRETISKYESNKLTPPSYNLESIEKALKVPAGTLAQ", "values": [
      {"measurement": "soluble fraction (log2)", "result": 0.22}
    ]},
    {"sequence": "HMETKVIVPKVTGMNSKSAINYLSARGLKYKAVPADSGKSFHVVDQYPKSGTKVSPHSTVYLYS", "values": [
      {"measurement": "soluble fraction (log2)", "result": 0.386}
    ]},
    {"sequence": "HMPRTEILMVDEEMEGERLDAFVAEQLDELSRSLVKTLIENGEIRVDGKQQKPSYRLKAGEEIIVEIPA", "values": [
      {"measurement": "soluble fraction (log2)", "result": -0.438}
    ]},
    {"sequence": "HMSGQLTEEQVKQIVTTAVKNSSGSTLTAAEVSRIVSTAVANNLTADQVKTVVNNALAGITTDISTLKA", "values": [
      {"measurement": "soluble fraction (log2)", "result": 0.202}
    ]},
    {"sequence": "HMRYLHTMIRVSDLEESLNFFKLLDIHEVSRKENEQARFTLVFLSATGDEKLVENAKSPLIELTFN", "values": [
      {"measurement": "soluble fraction (log2)", "result": -0.471}
    ]},
    {"sequence": "HMDRWTPLVVAVLSRGSHRFGELRAAIGGITPKVLTDTLRSMERDGLITRDQAPGVPPRVDYALTPLGS", "values": [
      {"measurement": "soluble fraction (log2)", "result": -0.126}
    ]},
    {"sequence": "HMARLAGVDLPREKRIEIGLTYIYGIGLARSQEILKKAGINPDIRVKDLTDEQEQAIRNAMDGYIVEGDL", "values": [
      {"measurement": "soluble fraction (log2)", "result": -0.0746}
    ]},
    {"sequence": "HMDDFTEVLLQYLKDHDGYSSIHDKTDAETIYNTFGVSKKTFKKAVGDLYKKRLIVLEEEGIRLLG", "values": [
      {"measurement": "soluble fraction (log2)", "result": -0.586}
    ]}
  ]
}
